The assay has as its target T1, Close homologue of L1 (CHL1) (mouse (endogenous in brain), UniProt P70232 26-1209).
T1 construct: CHL1, cell adhesion molecule of the immunoglobulin superfamily, endogenous in adult mouse brain; also called CALL; source: endogenous, mouse brain lysate; synaptosomes; synaptic vesicles and synaptic plasma membranes
T1 sequence (looked up): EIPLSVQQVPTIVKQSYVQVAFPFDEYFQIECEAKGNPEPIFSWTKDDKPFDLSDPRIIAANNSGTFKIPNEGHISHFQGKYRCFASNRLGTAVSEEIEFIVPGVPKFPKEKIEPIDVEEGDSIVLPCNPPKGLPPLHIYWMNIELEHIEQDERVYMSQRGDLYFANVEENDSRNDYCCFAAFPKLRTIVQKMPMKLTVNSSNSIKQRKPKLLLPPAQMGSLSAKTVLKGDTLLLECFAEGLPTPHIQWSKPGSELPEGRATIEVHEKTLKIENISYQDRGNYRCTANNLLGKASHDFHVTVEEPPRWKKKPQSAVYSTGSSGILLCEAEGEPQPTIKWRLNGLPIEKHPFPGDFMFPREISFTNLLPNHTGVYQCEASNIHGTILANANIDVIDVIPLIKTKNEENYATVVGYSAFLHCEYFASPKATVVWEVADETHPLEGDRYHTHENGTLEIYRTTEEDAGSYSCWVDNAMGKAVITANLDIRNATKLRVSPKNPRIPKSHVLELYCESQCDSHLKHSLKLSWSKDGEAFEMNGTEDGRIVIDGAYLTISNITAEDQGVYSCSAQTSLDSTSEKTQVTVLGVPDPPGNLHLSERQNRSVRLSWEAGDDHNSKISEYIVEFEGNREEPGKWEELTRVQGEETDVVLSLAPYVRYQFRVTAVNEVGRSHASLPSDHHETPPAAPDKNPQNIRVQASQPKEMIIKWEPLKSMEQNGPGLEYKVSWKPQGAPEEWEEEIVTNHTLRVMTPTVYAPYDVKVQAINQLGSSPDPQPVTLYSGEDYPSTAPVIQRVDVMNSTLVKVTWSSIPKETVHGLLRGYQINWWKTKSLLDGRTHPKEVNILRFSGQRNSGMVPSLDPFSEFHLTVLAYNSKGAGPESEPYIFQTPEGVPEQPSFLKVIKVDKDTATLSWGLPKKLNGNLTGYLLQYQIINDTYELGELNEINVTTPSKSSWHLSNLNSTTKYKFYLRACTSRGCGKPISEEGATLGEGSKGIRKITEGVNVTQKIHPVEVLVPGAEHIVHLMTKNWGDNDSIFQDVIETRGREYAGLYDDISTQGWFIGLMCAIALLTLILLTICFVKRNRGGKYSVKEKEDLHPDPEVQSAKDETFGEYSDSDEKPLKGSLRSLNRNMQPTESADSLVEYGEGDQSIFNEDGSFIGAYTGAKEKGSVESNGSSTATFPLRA
As to the kind of experiment: co-IP; CHL1 immunoprecipitated from adult mouse brain lysates (50 mM Tris-HCl pH 7.5, 150 mM NaCl, 1% Nonidet P-40, 1 mM EDTA); protein A/G-agarose; Western blot; mock IP with non-specific Ig as control. To be noted: partners not purified.

B1: small glutamine-rich tetratricopeptide repeat-containing protein, ubiquitous isoform (αSGT) (natural protein, mouse (endogenous in brain), UniProt Q8BJU0 1-315, looked up)
chain: MDNRKRLAYAIIQFLHGQLRHGGLSCDAQESLEVAIQCLETAFGVTLEDSDLALPQTLPEIFEAATSSKQEMPQDPRAPDRTPPSEEDSAEAERLKTEGNEQMKLENFEAAVHLYGKAIELNPANAVYFCNRAAAYSKLGNYVGAVQDCERAIGIDPGYSKAYGRMGLALSSLNKHAEAVAYYKKALELDPDNDTYKSNLKIAELKLREAPSPTGGVGSLDIAGLLNNPHFITMASSLMNSPQLQQLMSGMISGGHNPLGTPGSSPQQSDLASLIQAGQQFAQQMQQQNPEFVEQIRSQVVRSRTPSASHEEQQE
notes: αSGT, endogenous in adult mouse brain; also called alphaSGT; source: endogenous, mouse brain lysate; synaptic vesicles and synaptic plasma membranes
B1: the “percent of the total pool co-immunoprecipitated” value turned out to be 46 ± 8.5%.

B2: syntaxin1B (natural protein, mouse (endogenous in brain), UniProt P61264 1-288, looked up)
chain: MKDRTQELRSAKDSDDEEEVVHVDRDHFMDEFFEQVEEIRGCIEKLSEDVEQVKKQHSAILAAPNPDEKTKQELEDLTADIKKTANKVRSKLKAIEQSIEQEEGLNRSSADLRIRKTQHSTLSRKFVEVMTEYNATQSKYRDRCKDRIQRQLEITGRTTTNEELEDMLESGKLAIFTDDIKMDSQMTKQALNEIETRHNEIIKLETSIRELHDMFVDMAMLVESQGEMIDRIEYNVEHSVDYVERAVSDTKKAVKYQSKARRKKIMIIICCVVLGVVLASSIGGTLGL
notes: syntaxin1B, SNARE complex protein, endogenous in adult mouse brain; also called synatxin1B; source: endogenous, mouse brain lysate and synaptosomes; immunoprecipitated from synaptosomes and held on beads
For the molecule B2, the “percent of the total pool co-immunoprecipitated” value was 15 ± 3.1%.

Values taken from paper PMC2920317, “CHL1 Is a Selective Organizer of the Presynaptic Machinery Chaperoning the SNARE Complex” (PLoS ONE, 2010).
